# According to PMC2891831, “Insight into the Mechanisms of Adenovirus Capsid Disassembly from Studies of Defensin Neutralization” (PLoS Pathogens, 2010):
# Entries after “also recorded” stand apart in the source; their conditions may differ.
# Legend:
# [1] = system: HAdV species C; assay: Infection assay (hexon staining), HAdV species C; format: cell-based, human adenovirus; conditions: 15 µM HD5, A549 cells, hexon staining at ~48 h, vs. no defensin
# Procedure: (§1) To determine whether sensitivity to α-defensins is a general property of HAdVs, serotypes representative of HAdV species A–F were tested for infectivity in the presence of 15 µM HD5 or HNP1 (Figure 1). Wild type HAdVs rather than vectors were used for these studies, and infectivity was assessed by staining for hexon production. […] These studies indicate that sensitivity to α-defensins is species specific. In addition, particular HAdV serotypes are not equally sensitive to all defensins, indicating defensin sequence specificity as well.
# (§2) Figure 1 Sensitivity to neutralization by alpha-defensins is AdV species specific. HAdVs were incubated with 15 µM HD5 (A) or HNP1 (B) and assessed for infectivity on A549 cells. Data are the mean of the percent infectivity compared to control cells infected with each virus in the absence of defensin for at least three independent experiments ± SD. The upper limit for quantification of this assay is 200%. […]
# (§3) Prior to use in this assay, each virus stock was titrated on A549 cells. […] In parallel, wells were infected with two-fold serial dilutions of each virus to establish a standard curve for quantification with an upper limit of 200%. […] Total well fluorescence above background was quantified with ImageJ software. For each virus, samples were quantified by nonlinear regression against the standard curve using Prism software (GraphPad Software, Inc., La Jolla, CA).
# [2] = system: HAdV-F serotypes; assay: Infection assay (hexon staining), HAdV species F; format: cell-based, human adenovirus; conditions: 15 µM HD5, A549 cells, hexon staining at ~48 h, vs. no defensin; upper limit 200%
# Procedure: as §1, §2, §3
# [3] = system: HAdV-7p; assay: Virus-defensin binding assay, HAdV-7p; parameters: species or system human adenovirus; conditions: 20 µM HD5, mean of two or three independent experiments ± SD
# Source text: (§4) Figure 2 HD5 binding to HAdV. A) HD5 binding to a representative defensin-sensitive serotype (HAdV-5) was quantified by an equilibrium-binding assay. Data are the mean of the number of HD5 molecules bound per virion at the indicated HD5 concentrations from at least three independent experiments ± SD. Binding curves were fitted using Prism software. B) Binding of HD5 to additional defensin-sensitive (HAdV-7p) and resistant (HAdV-19c, -25p, -51p) serotypes expressed as a percent of HD5 bound to HAdV-5. Data are the mean of two or three independent experiments ± SD.
# (§5) We assessed HD5 binding to additional serotypes after incubation with 20 µM HD5 (Figure 2B). The sensitive serotype HAdV-7p bound 69.3±15.9% of the amount of HD5 bound to HAdV-5 in parallel samples; whereas, the corresponding values for the resistant serotypes HAdV-19c, -25p, and -51p were 32.5±7.5%, 3.3±5.8%, and 24.6±12.0%, respectively.
# (§6) To measure HD5 binding to HAdV-5 and -51, HD5 was serially diluted in PBS and mixed with 5 µg purified virus. […] The other half of each sample was used to make a standard curve for quantification. […] Virus bands were quantified using ImageQuant NT software (GE Healthcare). […] The amount of HD5 in the centrifuged samples was then quantified against the standard curve using Prism software. […]
# [4] = system: HAdV-25p; assay: Virus-defensin binding assay, HAdV-25p; parameters: species or system human adenovirus
# Source text: as §4, §5, §6
# [5] = system: HAdV-51p; assay: Virus-defensin binding assay, HAdV-51p; parameters: species or system human adenovirus
# Source text: as §4, §5, §6
# [6] = system: 19cF; assay: Virus-defensin binding assay, 19cF; parameters: species or system human adenovirus; conditions: studies equivalent to Figure 2B, data not shown
# Procedure: We then combined the GYAR substitution with the PB substitution in a single construct (PB/GYAR).
# To measure HD5 binding to HAdV-5 and -51, HD5 was serially diluted in PBS and mixed with 5 µg purified virus. After 1 h incubation on ice, one half of each sample was separated by ultracentrifugation [209,000×g (avg.) for 2 hrs at 4°C] on a discontinuous gradient consisting of 300 µl of 30% nycodenz and 200 µl of 80% nycodenz in 50 mM NaCl, 20 mM HEPES pH 7.4 using an SW55ti rotor with adaptors (Beckman Coulter, Inc.). The visible virus band was collected. The other half of each sample was used to make a standard curve for quantification. All samples were boiled in reducing loading buffer and separated using a 16% PAGEgel (Expedeon, Inc., San Diego, CA) or 10–20% Tris-Tricine gel (Bio-Rad, Hercules, CA). The gels were stained with Deep Purple (GE Healthcare) and imaged on a Typhoon Trio. Virus bands were quantified using ImageQuant NT software (GE Healthcare). The amount of HD5 in each sample was normalized to protein V and hexon. The amount of HD5 in the centrifuged samples was then quantified against the standard curve using Prism software. Affinity and stoichiometry were estimated from the average data of at least three independent experiments using Prism software.
# [7] = system: HAdV-7; assay: Virus-defensin binding, HAdV-7; parameters: species or system human adenovirus
# [8] = system: HAdV-5; conditions: ref [13], cited from earlier work
# Procedure: In order to determine the receptor-dependence of this effect, we pre-incubated cells with recombinant fiber knob from HAdV-5 (5FK) to block receptor (CAR) interactions and measured cell binding of fluorescently labeled HAdV-5 that was pre-incubated with or without HD5 or HD5-Abu (Figure 3C). Cells incubated with fiber knob from HAdV-16 (16FK), which binds CD46, served as a control. […] Therefore, we considered which of the multiple binding sites visualized by cryoEM might lead to enhanced virion stability. We reasoned that we might find a negatively charged region o ...
# [9] = ref [40], [44]; cited from earlier work
# Source text: The extensive difference density attributable to HD5 in our cryoEM analysis of Ad5.F35+HD5 is consistent with our estimated stoichiometry. HD5 binding sites were found on all of the major proteins of the capsid. […] The accumulation of HD5 difference density was not equal among the four unique hexon positions in the asymmetric unit but rather was greatest on the peripentonal hexons. Since the possible binding sites presented by each hexon a ...
# [10] = 20 µM HD5, mean of two or three independent experiments ± SD
molecule,measurement,setting,value
"HD5: human alpha-defensin; synthetic, obtained from Peptides International; three disulfide bonds (PDB 1ZMP) (peptide, UniProt Q01523 20-94, looked up, Defensin-5) Defensin alpha 5: ESLQERADEATTQKQSGEDNQDLAISFAGNGLSALRTSGSQARATCYCRTGRCATRESLSGVCEISGRLYRLCCR",sensitivity to neutralization (infectivity),[1],sensitive
same,sensitivity to neutralization (infectivity),[2],"completely resistant to HD5-mediated neutralization and, in most cases, infection is actually enhanced"
same,"HD5 bound, percent of HD5 bound to HAdV-5",[3],69.3±15.9%
same,"HD5 bound, percent of HD5 bound to HAdV-5",[4]; [10],3.3±5.8%
same,level of HD5 binding (in words),[4]; HAdV-25p,only a low level of binding
same,"HD5 bound, percent of HD5 bound to HAdV-5",[5]; [10],24.6±12.0%
same,level of HD5 binding (in words),[5]; HAdV-51p,only a low level of binding
same,amount of HD5 bound compared to HAdV-5,[6],did not detect a reduction in the amount of HD5 bound; also recorded: did not result in a noticeable reduction in overall HD5 binding
same,level of HD5 binding (in words),[7],specific binding
same,effect on HAdV-5 entry into host cells,[8]; [36],does not prevent HAdV-5 from entering host cells
same,binding of HAdV-5 to cells,[8],enhances binding of HAdV-5 to cells
same,concentration at which HD5 forms dimers and tetramers,[9],below 5 µM
